Measurements reported in patent publication US20240209096A1 (INVETX, published 2024).
Where a chain is given by its changes, count along the chain named. Names and notes keep the numbering of the source.

T1: canine FcRn (soluble large subunit p51 isoform X2 with 6xHis-tag, co-expressed with canine … (canine))
T1 construct: Heterodimer made by co-expression in CHO cells, purified on HISTRAP FF, >95% pure by SEC; Both entries hold a 19-residue signal peptide at the N-terminus that should be removed (residues 1-19); also called FcRn complex
T1 chain: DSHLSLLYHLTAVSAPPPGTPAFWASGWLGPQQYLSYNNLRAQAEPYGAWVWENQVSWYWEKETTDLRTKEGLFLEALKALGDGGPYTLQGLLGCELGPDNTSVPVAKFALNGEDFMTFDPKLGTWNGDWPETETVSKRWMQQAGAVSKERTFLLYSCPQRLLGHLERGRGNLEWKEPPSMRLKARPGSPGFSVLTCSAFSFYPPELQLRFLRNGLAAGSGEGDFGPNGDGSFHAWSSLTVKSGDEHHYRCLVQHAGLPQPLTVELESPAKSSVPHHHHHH
T1 b2m: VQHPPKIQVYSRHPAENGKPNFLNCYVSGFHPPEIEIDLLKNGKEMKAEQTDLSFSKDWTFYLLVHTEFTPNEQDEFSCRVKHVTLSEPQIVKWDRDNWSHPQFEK

B1: IgG with wild-type canine IgGB Fc (antibody)
heavy: EVQLVESGGDLVAPSQSLSITCTVSGMSLTSNSISWVRQPPGRGLEWLGTIWSNGGTDYTDAVKGRFTISRDNAKNTVYLQMNSLRAEDTAMYYCAQIYYYDADYLHWYFDFWGQGTLVTVSSASTTAPSVFPLAPSCGSTSGSTVALACLVSGYFPEPVTVSWNSGSLTSGVHTFPSVLQSSGLYSLSSMVTVPSSRWPSETFTCNVAHPASKTKVDKPVPKRENGRVPRPPDCPKCPAPEAAGGPSVFIFPPKPKDTLLIARTPEVTCVVVDLDPEDPEVQISWFVDGKQMQTAKTQPREEQFNGTYRVVSVLPIGHQDWLKGKQFTCKVNNKALPSPIERTISKARGQAHQPSVYVLPPSREELSKNTVSLTCLIKDFFPPDIDVEWQSNGQQEPESKYRTTPPQLDEDGSYFLYSKLSVDKSRWQRGDTFICAVMHEALHNHYTQESLSHSPG
light: EIVMTQSPASLSASQEEKVTITCRASEGISNNLAWYQQKPGQAPKLLIHATSSLQTGVPSRFSGSGSGTDFTLTISSLQPEDFATYYCQQGYQFPLTFGQGTKVEIKRNDAQPAVYLFQPSPDQLHTGSASVVCLLNSFYPKDINVKWKVDGVIQDTGIQESVTEQDKDSTYSLSSTLTMSSTEYLSHELYSCEITHKSLPSTLIKSFQRSECQRVD
notes: Full chains; canine IgGB constant domain with MALA mutations; variable domains of WO 2023/97275; also called Wild-type Fc
B2: IgG with canine IgGB Fc variant N434H, T286Y (antibody)
heavy: B1 heavy with T295Y, N445H
light: B1 light
notes: Full chains; canine IgGB constant domain with MALA mutations; variable domains of WO 2023/97275

Legend:
[1] = biological target: T1, canine FcRn (soluble large subunit p51 …); test: SPR, IgG on protein L chip, FcRn in flow, pH 5.9, 1:1 fit; pH 5.9, 1:1 kinetic fit
Procedure: (§1) The canine FcRn binding experiments at pH 5.9 and pH 7.4 were completed on a BIACORE™ T200 instrument. A Series S Protein L Sensor chip (Cytiva, Cat. No. BR29205137) was used to capture the antibody variants via the kappa (κ) light chain. The canine variants were captured onto the protein L chip at a flow rate of 10 μL/min for 60 seconds. Approximately 250 RUs of the variants were captured. For the low pH binding condition, 1×PBX-P+ (Cytiva, Cat. No. 28995084) was adjusted to pH 5.9. The canine FcRn was flowed over the sensor chip at 30 μL/min for 120 seconds contact time and 600 seconds dissociation time. Regeneration of the flow cells was completed by flowing over 10 mM glycine, pH 1.7 at 30 μL/min for 30 seconds. The data were evaluated by the BIACORE™ T200 Evaluation software (version 3.2.1) by fitting to a 1:1 kinetic interaction model.

[2] = biological target: T1, canine FcRn (soluble large subunit p51 …); test: SPR, IgG on protein L chip, FcRn in flow, pH 5.9, kinetic data
Procedure: as §1

[3] = biological target: T1, canine FcRn (soluble large subunit p51 …); test: SPR, IgG on protein L chip, FcRn in flow, pH 7.4, steady state fit
Procedure: as §1
A subset of the Fc variants was tested for binding to canine FcRn at pH 7.4. For these experiments, 1×PBX-P+ (Cytiva, Cat. No. 28995084) was adjusted to pH 7.4. […] In addition, the pH 7.4 data were evaluated by the BIACORE™ T200 Evaluation software (version 3.2.1) by fitting to steady state affinity model. The kinetic binding data for the variants at pH 7.4 along with the binding data at pH 5.9 for these variants are shown in Table 7 below.

[4] = biological target: T1, canine FcRn (soluble large subunit p51 …); test: SPR, IgG on protein L chip, FcRn in flow, pH 5.9, 1:1 fit
Procedure: as §1

| Kd [1] | koff [1] | kon [1] | Kd [2] | koff [2] | kon [2] | Kd [3] | Kd [4] | koff [4] | kon [4] | Binder |
| --- | --- | --- | --- | --- | --- | --- | --- | --- | --- | --- |
| 231 nM | 0.0927 s⁻¹ | 285000 M⁻¹ s⁻¹ |  |  |  |  |  |  |  | B1 |
|  |  |  | 15.7 nM | 0.0318 s⁻¹ | 2.04e+06 M⁻¹ s⁻¹ | 2170 nM | 15.7 nM | 0.0318 s⁻¹ | 2.04e+06 M⁻¹ s⁻¹ | B2 |
